Earlier results as cited in patent publication US7235522B2, “Use of microparticles having a protein and an antibody adsorbed thereon for preparing a pharmaceutical composition for intranasal administration” (priority 1997, dated 2007).

Settings: in vivo

insulin [insulin (51 AA)]
absorption of proteins administered by nasal route: almost zero
